The assay deals with CDK2 (Homo sapiens, UniProt P24941). The assay can be described thus: SPR. (In general: SPR reads the build-up and loss of mass on a sensor chip optically.)

B1: LAALS peptide (peptide)
chain: LAALS
modifications: 60 uM ATP
B1 registered an equilibrium dissociation constant (Kd) of 61 µM. That is a double-digit micromolar value.

The term Kd denotes the equilibrium constant for the complex coming apart.
